The values that follow come from patent US10533167.

Holding throughout (experiment): cell-based or functional assay
The target in test [1] is FUSN-Cry2olig (N-terminal IDR of FUS fused to mCherry-labeled Cry2olig, Cry2 E490G) (human; Arabidopsis thaliana) (UniProt Q96524).
Test [2] addresses optoDDX4 (N-terminal IDR of Ddx4 fused to mCherry-labeled Cry2WT) (human; Arabidopsis thaliana) (UniProt Q96524).
The target in test [3] is optoFUS (N-terminal IDR of FUS fused to mCherry-labeled Cry2 PHR, Cry2WT) (human; Arabidopsis thaliana) (UniProt Q96524).

Take “FUSN-Cry2olig (N-terminal IDR of FUS fused to mCherry-labeled Cry2olig, Cry2 E490G) (from UniProt Q96524 1-498)”: the saturation concentration for light-activated clustering, relative to optoFUS (fold lower than optoFUS) in test [1] was 5.
In test [2], “optoDDX4 (N-terminal IDR of Ddx4 fused to mCherry-labeled Cry2WT) (from UniProt Q96524 1-498)” gave a saturation concentration (Csat) for light-activated phase separation, relative to optoFUS (fold lower than optoFUS) of 2.
The substance “optoFUS (N-terminal IDR of FUS fused to mCherry-labeled Cry2 PHR, Cry2WT) (from UniProt Q96524 1-498)” registered a saturation concentration (Csat) for light-activated phase separation in NIH 3T3 cells in test [3] of 1.4 µM.
